Here are results for 22 sequences from the DeepSol protein solubility set.

A short description of this series: soluble on expression in E. coli; label from the status in PepcDB or PDB records.
Turning to “MSWWCCIPKSKKGENPYSHGVSGIPPEKNIRLFSYSELRSATENFNRSNKIGRGGFGTVYKGTIRNGRDVAVKVLSAESRQGVREFLTEIDVITNVKHPNLVELIGCCVEGNNRILVYEYLENSSLDRALLGSNSEPANFTWSIRSAICIGIAKGLAYLHEEIASPIVHRDIKASNILLDKLYNPKIGDFGLAKLFPDNITHISTRVAGTTGYLAPEYAWHGQLTKRADIYSFGVLVLEIVSGKSSSRSLLADDKILLEKAWELHEVGKLKELVDSEMGDYPEEEVLRYIKTALFCTQAAAARRPSMPQVVTMLSKPIRINERELTAPGYIHDYNGTVSKATNSSNSRFKHSASDTSDMFSTVVPPTVSEISPR”, the “soluble on expression in E. coli” value is “not soluble”.

Regarding “MKKELLTRFMEKRIVELKKEQRNGTAHVYQSTLNRLKNFMNGREITFSQLTPEWLALFEQKLLADQLKWNTISTYMRMLRSVYNQALERGVATYVPRLFNKVHTGIDCPVKRAVSPEVICRLMTDRKPLPGKLAFSRDLFVLLFLLRGMPFVDLAFLRRCDLQGNVITYHRRKTSRKLTVVVGKEAMEIIQKYMYAIPDSPYLFPIIQNPGKDEYGQYARMLRLQNYRLTQVANILGIRDRLSTYTARHTWATTALRQNYNSSLICDAMGHSSVKVTETYFQPYRDDEVNRMNSSLITYILSKKKRGTDKKIRS”, the “soluble on expression in E. coli” value was “not soluble”.

With “MSQSISLKGSTRTVTEFFEYSINSILYQRGVYPAEDFVTVKKYDLTLLKTHDDELKDYIRKILLQVHRWLLGGKCNQLVLCIVDKDEGEVVERWSFNVQHISGNSNGQDDVVDLNTTQSQIRALIRQITSSVTFLPELTKEGGYTFTVLAYTDADAKVPLEWADSNSKEIPDGEVVQFKTFSTNDHKVGAQVSYKY”, the “soluble on expression in E. coli” value is reported as “soluble”.

For the sequence DGGTMENLSRRLKVTGDLFDIMSGQT, the “soluble on expression in E. coli” value is on record as “soluble”.

Consider “MGSDKIHHHHHHQPSSNRYARVDAAILSIPDEYTKKVDTFAEYINRKFKGDEAKMRAIYVWMTHRMAYNVFTTFTSRNEVYSEEKEVQETLSTRKGVCRQFALLFKTLAGKVGIKAYLIDGYGKSGNVVLPEVHEWCVAQVNGEWYFFDPTYDTGYIEDYRFVSAPDDVYFKQLPERFIQTHMPFDPLWQFLKRPYSYSEFEKGVLESGRNVPFFCWQDSLKVYDRQSWVEQLEAARSRILANGKGNDLVDYFLQLNQANTQVGKDSEAIDVYAAATDLQNRAVDSINVFIRYRKAGFRPRKAEAQVRRMIEVSEELTLRADSLINSVHTISPQYKQALLNLRESIMDLAMQIYKHKLFLERYYATKPSLRGNLLRR”, for which the “soluble on expression in E. coli” value is “not soluble”.

Turning to “SNRLGIPALSGDTLSLLNTPSEILNAIISDIEKAEHEINMEFYIWHHGGLADSVASALIVAAKRGVTVNVLLDSAGSMDFFKSHWPKLLKQSGVNIVEALSVSPFRMFFRRLDLRLHRKIVVIDNRIAYTGSMNLVDPQYFKQNSGVGQWIDVMVRLTGPNVAILNTIHAWDWEVETGIRELPHLPECPASIDPFNHTTQVVPSGPGMPDDIIQQV”, the “soluble on expression in E. coli” value is listed as “not soluble”.

For “MSLVINAPFKVIASKVTAEVLKSVNSKLGSYSTNYATSSEARATNVAVATRSIDGKVVMPGETFSFNEVVGERTRARGYKEAGVIVNQKLESGFGGGVCQVSSTLYNALLRSNIKMTERVHHTFPSSYVPTGLDATVDWGNIDLKFKNTFKYPIYIQGYTGGREVGFNIYSNSELARTRCEITSEVYKKIEPRTEYINDSNLPAGAMEVVKSGHTGYRVKSYRSIYKDGKFVAKELIANDYYVPVNGVVKRGTREGHHHHHH”, the “soluble on expression in E. coli” value was “soluble”.

Take “MTATNDKGLQQIATIIEQHQTLPGAMLPILHAIQNDLSFIPSNALPLIAKALNVSKAEVHGVISFYHHFRTEEPGAHVIEICRGESCQAMGSRALEENIKQNLSIDYHQTSKDRQYTLEPVYCLGNCACSPAMRIGDDIHGELDLQKFEQIIASLNTYSLELK”: the “soluble on expression in E. coli” value is on record as “not soluble”.

With “MSLKENNMDKAHIGFIGLGLMGAAMVECLQKAGHAVTVLGNRDRTGVEAALARGATEAAHARAVAEASDIVMLCMGTSAQVESRIYGDDGVLAGTREGQVVIDFGTSLPASTRRIGGDLAGKGATYLDAPLGRTPAHARDGLLNIMCSGDKATFDRVKPVLHTLGENVFHLGALGNGHTIKLINNCYSMTTACAMAEAFAIADATGIERQALYNVMAAGPNHSGMMDFINAYANGGRIDLAFTVANAAKDVGYYRQMATEMGLFSRMSIAADATLREARDGGDGGLMVPQMIDWMVRHLGEEGHHHHHH”, the “soluble on expression in E. coli” value is “soluble”.

For “MAYTLHKMTKKLHKQKFFQFAAFIQKKFDSPLFKAIRKRSCHWSDISNHNDNYDLTVASYNVHKCIGVDKVFNPTRIVQVITELQVDILALQEADKRFGERIGLIDLQLLKAETGLIPVPLNTMSPHGHGWHGNALFLRKGHVCDTLQITLPGIEPRGAVIADLEMEVGPIRVIAAHFGLLRHSRNQQTKMLLSLLQKRPLMPTLLIGDFNEWRIGKGSSLNHFAPYFDSTVGTVPSFPSRFPLLALDRILAFPHQLVIRIENHHSPLARIASDHLPIKAYLDLSHAMATLKK”, the “soluble on expression in E. coli” value is “not soluble”.

For the sequence NPHLLVKYHSGFFVDGKFLCCQQSCKAAPGCTLWEAY, the “soluble on expression in E. coli” value is “soluble”.

“MAHHHHHHMFLFRHSAEPMEAEEERHERVDSTTEPHNAATAAARKRRTSADVANGEVSREASGVAESFDETGGAPHTPREGTAPPPDVHDMLEHQRPRDEDDAEADMAAAALAASAPAPFHGVPTLPMPRTCDENPQAEADGNSTQRHRSYSHTSRFAAPSPRSTSGISRGRSYSLSGLSAAELADVHEQQYRRCTSIVKSARCISARRASSVNGVVGVIDDLYTLASRRSSAMTEAERVAVERMIENEYRRQEAAERSAQFALARESIIVNEELAREKATYVRRMHLNEELHARLAKSSRTRQERMTAAAQRRQEIEQERLRVLYGSMMEKDTRYHFRNPYEMMAAQRRYSIEMRSPAAIAPQRRASSPSTRASGNAQMSPRSAEGVANCTTEDRCTSSPATRRRSSTPSIAKSKPRQCLPLDAWKKPVPPRKDSCRSDISAEHRCRSPTDWRATAVLEHPRQWH”: the “soluble on expression in E. coli” value was “not soluble”.

As for “MLPPLPDFSLSVEQQFDLQKYRQQVRDISREDLEDLFIEVVRQKMAHENIFKGMIRQGS”, the “soluble on expression in E. coli” value is on record as “soluble”.

Take “MGSDKIHHHHHHPLGSPEAGDISEERQAFLRLTAVYSVMKDFRYTWSMQCFGDVLSNDATYSGSSNDAQTFTLLENYQYQADHTEILNKYRYSYQCINKANLFIRDMEMADDALFSKYDKEQMIGEAKFIRAYTYFELVKTFGGVPCYTGVLDLDHERLGRASVEEIYSVIEQDLNDAVSVLPKKSEVANYESSYAGRITKGAAIAMQTRIYLYEKKYDEVKKAFEKFQNECGGEYSLVAPEDYTWQFSLDGEHCSSSILEVNMYNSSTQSSYNVNNGNRHVLMSMPRNMTIGFGCAQPTQALADAYDAEGDVIRKKTTLLSTEEAIEIETAAKGDVAPVTDDRTGWYNRKLYLAPGQREENRGNNQPTNLRLIRLAEVYLNYAEACYFSGDIANAQKYLNEVRSHVNLAPKNHTGSQLFEDIMNERHLEFGMEGFRFFDVVRVGWGEKVFNGTKKAEFGAKTPFSAGAEVLPIPQTEIDISDGLITN”: the “soluble on expression in E. coli” value was “not soluble”.

“MGHHHHHHSHMAVRRPGCFLCREEAADLSSLKSMLDQLGVPLYAVVKEHIRTEVKDFQPYFKGEIFLDEKKKFYGPQRRKMMFMGFIRLGVWYNFFRAWNGGFSGNLEGEGFILGGVFVVGSGKQGILLEHREKEFGDKVNLLSVLEAAKMIKPQTLASEKK”: the “soluble on expression in E. coli” value is given as “not soluble”.

For “MVDKDIHSEHWYHGLLPREDIKAMLRKNGDFLVRSTEPKAGEPRQYVLSAMQSEELEDAGVKHYVMRLNSSNQIFLEAKGFETIASLVNYYMSSKEPIKKLTVLKTPILKQPWEIEHSQVELTKKLGEGAFGEVWKGKLTLKNGNVENCAIKTAKLESLNKEQIKEIMREARLMRNLDHPNVVKFYGVGASQEPLYVIMELADCGALDSYLQKNPNLVPDKKMEMIYQAACGISYMHEKKLLHRDIAARNCLYGGGQVKIADFGLSREGISYVMDLTKKVPIRWLAPETLKAGIYSPKTDVFAFGIMAWEITENGKEPYPDMRVADVVGKVRNGYRMRFDPVFVDFRFGDYVTKHCWAENPADRVSMADVLRYLQTTFGMKPVVLSILSSNRSTEEEMKTMKPPMFSVKRNNKKKPK”, the “soluble on expression in E. coli” value is on record as “not soluble”.

With “MPKFVVIELNDDAATIDLLSYCVKKNFERVSLLTRLEDHPYLRDDQDVVQDDTQSQGTDGMLLQLNDEERQRLMKMISTPGPQTLSMERIQMAPGQGQHILQQHQIPSTSSYTNNSFIYIKSDPQYKDEPQQQSNQFDATVNSVAHGQAGLSTLEMFACNGSPNGGDVLRRKTPSRKAEDSIKATCKVCGHDVMYSPQRTWNLMRHVWIMHQSSKPNQCSICGYSHIKPYVRKHIESQHKHDSNATIIDLKSPELEAEWSQLLDQCFGVTYRKWKHHKEDTQHTVFAAGDEDYGHEHHFSPEEDVMTTL”, the “soluble on expression in E. coli” value was “not soluble”.

Turning to “MVAYPGPMPRSPSPGQTPDAPTSGGGSTDSTRQRIVAAAKEEFARHGIAGARVDRIAKQARTSKERVYAYFRSKEALYAHVAERETTALIEATQLDPADLPGYAGILFDHFAARPDHYRLITWGRLELAESADNTSGPLQATIAGKLDKLRDAQRIGLLDPAWDPVDVLALINQIAMTWAGQPEIAAAAADQAVDPSVTARRAALVTAVEHMFPRPDRDQRPNRLT”, the “soluble on expression in E. coli” value was “soluble”.

Regarding “MGSDKIHHHHHHMAQSSIEWTEMTWNPTTGCTKISAGCKFCYAEIMSKRLKAMGIDKYKDGFKVNIYPDALSIPYTWKSSKVVFVNSMSDLFHEDIPLDYIKKVFQVMNENPQHVFQVLTKRAERLFEVYKELKWTHNIWMGVSVENDKVKNRIDLLRKTSAKVKFLSLEPLIGPLPKLNLKKIDWVIVGGESGHRPRPMDSDWVLDIQEQCLKSDVAFFFKQWGGRNKKANGRLLNGRTYDEMPEIMEIEKVK”, the “soluble on expression in E. coli” value was “not soluble”.

“MKIAIIGATGHAGSAIFKEALKRGHEVTGYVRHPDKSVGILPPDADLIQQDAFTLTREQLTGYDAVIDAFATTVEQAYLHIDLADHLIHELRNTDKPRVIFILGAGSLKNGDQTLYDTLKKDPHAAAFINTPLNQFRELQLLRWTDNVNWLGISPSANFQPGPATAYVRGKDELLKDDSGKSVLNSDTLAVALLDELENPTIKQARFTARNALEHHHHHH”: the “soluble on expression in E. coli” value is recorded as “soluble”.

With “MGSDKIHHHHHHMGELTIAKSAGFCFGVTRAVNMVYEAIEKENVPIYTYGPIIHNDEVVKDMEKNGVTVINDLDELSSHEKGVMIIRSHGISKAEYDRIKNCGFEVLNATCPFVSKIHRYVEDYSSKGYDIIIVGSPKHPEVCGIKGWADEKCHVTIINSPEDAENYMKNSTKKLCIVSQTTFNYNKFQDIVEIIAKKGYDITVLNTICNATEVRQTEARKVAQCSDVMIVIGDRHSSNTQKLFEICKNECKNTYYIQTSDEMDYTQIRSNNNVGITAGASTPNNIIEEVSKNVRNEL”, the “soluble on expression in E. coli” value is “not soluble”.

As to “MGSDKIHHHHHHMPHLFYGTAQNGEVIFDEREAHHMRVVRLKEGDVIEATDGNGFSYTCILKSLKKKTAAAKIVKVEEKEKEPTEKLSVVVPIGRWERTRFLIEKCVELGVDEIFFHKFERSQHEISLDKAKIVVREAAKQCKRYLFPKVSFLEKLEFSGNVITLDLDASQNLLDANLEGSITVVVGPEGGFSEKERELLRSSTTIVSLGKKILRFETAAILTVGYIALKKQKI”, the “soluble on expression in E. coli” value is listed as “soluble”.
